According to patent publication US20230212305A1 (published 2023):

What was measured:
[1] = molecular target: T1, human ABCG2 (human, UniProt Q9UNQ0 1-655); assay: flow cytometry, 293T cells overexpressing human ABCG2
T1 construct: also called hG2; KPG2
T1 sequence: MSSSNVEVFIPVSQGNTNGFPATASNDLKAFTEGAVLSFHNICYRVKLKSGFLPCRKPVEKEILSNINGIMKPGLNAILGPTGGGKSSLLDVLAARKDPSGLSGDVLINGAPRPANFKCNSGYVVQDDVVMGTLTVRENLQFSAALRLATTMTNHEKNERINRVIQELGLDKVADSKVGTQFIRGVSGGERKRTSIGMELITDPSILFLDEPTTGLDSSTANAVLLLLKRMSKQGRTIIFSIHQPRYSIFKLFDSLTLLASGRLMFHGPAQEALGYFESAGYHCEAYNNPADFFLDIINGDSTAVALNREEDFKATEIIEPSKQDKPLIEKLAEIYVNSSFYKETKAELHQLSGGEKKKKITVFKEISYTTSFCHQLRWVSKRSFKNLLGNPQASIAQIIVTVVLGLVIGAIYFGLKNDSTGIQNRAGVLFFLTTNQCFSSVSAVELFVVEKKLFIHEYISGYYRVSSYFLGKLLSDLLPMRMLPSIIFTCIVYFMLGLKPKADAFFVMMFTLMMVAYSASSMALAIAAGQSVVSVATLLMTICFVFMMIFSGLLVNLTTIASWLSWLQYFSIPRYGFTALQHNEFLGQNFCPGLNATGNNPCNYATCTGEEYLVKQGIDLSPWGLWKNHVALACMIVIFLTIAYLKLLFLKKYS
Protocol: (§1) Cell Binding Assays. Antibody binding to cells was evaluated by flow cytometry. […] After incubating cells on ice for 30 min, cells were washed twice with flow cytometry buffer. Bound antibody was detected with PE-labeled F(ab′)₂ fragment goat anti-human IgG (Jackson ImmunoResearch) and evaluated on an Attune NxT flow cytometer.

[2] = molecular target: T2, cynomolgus ABCG2 (Macaca fascicularis) (Macaca fascicularis (cynomolgus), UniProt Q5MB13 1-654 (rhesus entry)); assay: flow cytometry, 293T cells overexpressing cynomolgus ABCG2
T2 construct: also called cABCG2
T2 sequence: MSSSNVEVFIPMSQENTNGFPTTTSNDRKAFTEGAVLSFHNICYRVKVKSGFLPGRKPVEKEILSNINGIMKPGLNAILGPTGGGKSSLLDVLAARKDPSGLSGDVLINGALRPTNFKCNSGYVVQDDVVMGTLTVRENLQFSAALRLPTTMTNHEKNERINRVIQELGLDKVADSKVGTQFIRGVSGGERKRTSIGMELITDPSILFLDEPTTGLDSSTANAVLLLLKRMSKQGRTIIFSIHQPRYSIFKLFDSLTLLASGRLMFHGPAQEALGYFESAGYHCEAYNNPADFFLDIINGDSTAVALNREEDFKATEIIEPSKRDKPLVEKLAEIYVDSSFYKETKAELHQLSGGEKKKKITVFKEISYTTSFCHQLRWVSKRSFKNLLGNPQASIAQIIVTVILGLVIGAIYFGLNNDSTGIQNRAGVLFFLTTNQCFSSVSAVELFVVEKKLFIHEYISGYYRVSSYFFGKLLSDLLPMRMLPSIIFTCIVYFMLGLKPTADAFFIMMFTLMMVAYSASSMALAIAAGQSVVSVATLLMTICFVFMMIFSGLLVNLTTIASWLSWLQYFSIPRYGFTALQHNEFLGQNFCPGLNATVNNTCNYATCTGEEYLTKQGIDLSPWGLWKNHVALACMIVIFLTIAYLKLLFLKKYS
Protocol: as §1

[3] = molecular target: T1, human ABCG2; assay: flow cytometry titration on 293T_ABCG2_OX cells; column Affinity for human ABCG2 (nM)
Protocol: as §1

[4] = molecular target: T2, cynomolgus ABCG2 (Macaca fascicularis); assay: flow cytometry on cells expressing cynomolgus ABCG2; paragraph 395: non-significant binding = -
Protocol: as §1

[5] = molecular target: T1, human ABCG2; assay: cell-based or functional assay
[6] = molecular target: T2, cynomolgus ABCG2 (Macaca fascicularis); assay: flow cytometry on cells expressing cynomolgus ABCG2
Protocol: as §1

B1: G2.643 mouse (antibody, human IgG1, V domains shown)
VH: VNLVESGPELVKPGTSVKISCKASGYRFTSYYVHWVKQRPGQGLEWIGWIFPGSDNTKYNEKFKGKATLTADTSSSTAYMQLSSLTSEDSAVYFCASIYYGYDGTLYFDYWGQGTSVTVSS
VL: DIVMTQSHTFMSTSVGDRVSVTCKASQNVGNNVAWYQQKPGQSPNALIYSASYRYSGVPDRFTGSGSGTDFTLTISNVQSEDLAEYFCQQYDRYPLTFGGGTKLEIK
notes: Recombinant antibody
- binding result [1]: binds
- binding result [2]: binds

B2: G2.247 mouse (antibody, human IgG1, V domains shown)
VH: EVRLQQSGAELVKPGASVKLSCKTSGFTFSNSYISWLKQKPRQSLEWIAWIYAGTGGTNYNQKFTGKAQLTVDTSSSTAYMQLSSLTSEDSAIYYCATYGNFLYAMDNWGQGTSVTVSS
VL: DIVMTQSPASLSASVGETVTITCRASGNIHNYLAWYQQKQGKSPQLLVYNTKTLADGVPSRFSGSGSGTQYSLKINSLQPEDFGSYYCQHFWSTPWTFGGGTKLEIK
notes: Variable regions cloned onto human IgG1 constant heavy chain and human kappa constant light chain
- Kd [3]: 59 nM
- binding result [4]: no binding

B3: G2.248 mouse (antibody, human IgG1, V domains shown)
VH: QVQLQQPGAELVKPGASVKLSCKTSGFTFSNSYISWLKQKPRQSLEWIAWIYAGTGGTNYNQKFTGKAQLTVDTSSSTAYMQLSSLTSEDSAIYYCATYGNFLYAMDNWGQGTSVTVSS
VL: DIQMKQSPASLSASVGETVTITCRASGNIHNYLAWYQQKQGKSPQLLVYNTKTLADGVPSRFSGSGSGTQYSLKINSLQPEDFGSYYCQHFWSTPWTFGGGTKLEIK
notes: as for B2
- Kd [3]: 125 nM
- binding result [4]: no binding

B4: G2.252 mouse (antibody, human IgG1, V domains shown)
VH: EVQLQQSGAELVKPGASVKLSCKTSGFTFSNSYISWLKQKPRQSLEWIAWIYAGTGGTNYNQKFTGKAQLTVDTSSSTAYMQLSSLTSEDSAIYYCATYGNFLYAMDYWGQGTTLTVSS
VL: EIVLTQSPASLSASVGETVTITCRASGNIHNYLAWYQQKQGKSPQLLVYNAKTLADGVPSRFSGSGSGTQYSLKINSLQPEDFGSYYCQHFWSTPWTFGGGTKLEIK
notes: as for B2
- Kd [3]: 347 nM
- binding result [4]: no binding

B5: G2.640 (antibody, human IgG1, V domains shown)
VH: EVKLEESGPGLVQPSQTLSLTCTVSGFSLTSDGVSWVRQPPGKGLEWIAAISSGGSTYYNSALKSRLSISRDTSKSQVFLKMNSLQTEDTAIYFCTRDTYYGYNQIPFVYWGQGTLVTVSS
VL: DIVIIQSPPSLSASLGDKVTISCQASQNIHRYIAWYQQKPGKAPRLLIRYTSTLESGTPSRFSGSGSGRDYSFSISNVESEDIASYYCLQYVNLWTFGGGTKLELK
notes: Raised in rats
- IC50 of topotecan cytotoxicity in the presence of the antibody [5]: 6.9 nM
- binding result [1]: no binding
- binding result [2]: no binding

B6: G2.255 mouse (antibody, human IgG1, V domains shown)
VH: EVMLVESGGALVKPGGSLKLSCAASGFTFSNNAMSWVRQTPETRLEWVATITGGGSYTYYPDSVKGRFTISRDNARNTLYLQMSSLRSEDTATYYCASPDGNYEGVLAYWGQGTLVTVSA
VL: DIQMNQSPSSLSASLGDRVTISCSASQGISNYLNWYQQKPDGTIKLLIYYTSTLHSGVPSRFSGSGSGTDYSLTISNLEPEDIATYYCQHYSSLPWTFGGGTKLEIK
notes: as for B2
- Kd [3]: 363 nM
- binding result [4]: no binding

B7: G2.748 rat (antibody, V domains shown)
VH: QVSLKESGPGMLQPSKTLSLTCSFSGFSLSTSGMVVNWIRQPSGKSLEWLAAIDWDGDKYYNPSLKHRLTVSKDTSNTQVVLKITSVDTADTATYYCARSIAPYRGWFGYWGQGTLVTVSS
VL: EIVLIQSPSSLPASLGERVTIICRASQDIGNNLNWYQQKPDGTIKPLIYFTSNFQSGVPSSFSGSRSGTDFSLTISSLEAEDFAMYYCQQDASLPWTFGGGTKLEIK
- binding result [1]: binds
- binding result [2]: binds

B8: G2.642 rat (antibody, human IgG1, V domains shown)
VH: QIQLVQSGAELVKPGASVKLSCKTSGFTFSSNYISWLRQKPRQSLEWIAWIYSGTGGTYYNQKFTGKAQLTIDTSSNTAYMQLSSLTSEDSAIYYCARHVGLRYWYFDVWGAGTSVTVSS
VL: DIVLTQSPASLTVSLGQRATISCRASESVDSNGNSFMHWYQQKPGQSPKVLIYRASNLESGVPARFSGSGSRTDFTLTINPVEADDVATYYCQQSNEDPWTFGGGTKLEIKR
- IC50 of topotecan cytotoxicity in the presence of the antibody [5]: 9.08 nM
- Kd [3]: 48 nM
- binding result [4]: no binding

B9: anti-ABCG2 antibody 5D3 (antibody, V domains shown)
VH: QVQLQESGPGLVKPSQSLSLTCTVTGFSITSDYAWNWIRQFPGKKLEWMGYINFDGGTTYNPSLRGRISITRDTSKNQFFLQLRSVTPEDTATYYCATFYGAKGTLDYWGQGTSVTVSS
VL: DIVLTQSPSSFSVSLGDRVTISCKASGYILNRLAWYQQKPGNAPRLLISGATSLETGFPSRFSGTGSGKDYTLSISSLQTEDVGTYYCQQYWSTPWTFGGGTKLEIK
notes: also called clone 5D3
- IC50 of topotecan cytotoxicity in the presence of the antibody [5]: 0.3 nM
- Kd [3]: 5 nM

B10: G2.629 rat (antibody, human IgG1, V domains shown)
VH: EVQLVESGGGLVQPGRSLKLSCAASGFIFSRFYMAWVRQAPTKGLEWVAYINTGGGTTYYRDSVKGRFTISRDNAKTTLYLQMDSLRSEDTATYYCTTLAAPWNYVMDAWGQGASVTVSS
VL: DVVMTQSPSLLSASVGDRVTLTCKGSQNINNFLAWYQQKLGEAPKLLTYKTNSLHTGIPSRFSGSGSGTDYTLTISSLHSEDLATYYCYQYNNGYTFGPGTKLELK
notes: as for B2
- IC50 of topotecan cytotoxicity in the presence of the antibody [5]: 2.21 nM
- Kd [3]: 16.8 nM
- binding result [6]: binds

B11: G2.631 rat (antibody, human IgG1, V domains shown)
VH: EVKLLESGGGLVQSGRSLKLSCAASGFIFSRFYMAWVRQAPRKGLEWVAYISNGAGSTYYRESVKGRFIISRDNAKSTLYLQMDSLRSEDTATYYCTTVAAPWNYVMDGWGQGASVTVSS
VL: NIQITQSPSLLSASVGDRVTLSCKGSQNINNYLAWYQQKLGEAPKLLIYKTNSLHTGIPSRFSGSGSGTDYTLTISSLHSEDLATYYCYQYNNGYTFGAGTKLELK
notes: also called G.631
- IC50 of topotecan cytotoxicity in the presence of the antibody [5]: 1.42 nM
- Kd [3]: 14.2 nM

B12: G2.636 rat (antibody, human IgG1, V domains shown)
VH: EVKLVESGGGLVQPGRSLKLSCAASGFTFSRFYMAWVRQAPTKGLEWVAHISHGGDTTYYRDSVKGRFTISRDNAKSTLFLQMDSLRSEDTATYYCTTSAAPWNYVMDGWGLGASVTVSS
VL: DIVMTQSPSLLSASVGDRVTLTCKGSQNINNFLAWYQQKLGEAPKLLIYKTNSLHTGIPSRFSGSGSGTDYTLTISSLHSEDLATYYCYQYNNGYTFGAGTKLELK
notes: as for B2
- IC50 of topotecan cytotoxicity in the presence of the antibody [5]: 0.45 nM
- Kd [3]: 17 nM
- binding result [6]: binds

B13: G2.641 rat (antibody, human IgG1, V domains shown)
VH: EVKLEESGGGLVQPGRSLKLSCAASGFTFSRFYMAWVRQAPTKGLEWVAHISHGGDTTYYRDSVKGRFTISRDNAKSTLFLQMDSLRSEDTATYYCTTSAAPWNYVMDGWGLGASVTVSS
VL: DIQMTQSPSLLSASVGDRVTLTCKGSQNINNFLAWYQQKLGEAPKLLIYKTNSLHTGIPSRFSGSGSGTDYTLTISSLHSEDLATYYCYQYNNGYTFGAGTKLELK
notes: as for B2
- IC50 of topotecan cytotoxicity in the presence of the antibody [5]: 1.04 nM
- Kd [3]: 23 nM
- binding result [6]: binds

B14: G2.760 rat (antibody, human IgG1, V domains shown)
VH: EVQLVESGGGLVQPGRSMKLSCAASGFTFSKSDMAWVRQAPTKGLKWVASIRYDGGNTYYRDSVRGRFTISRDNAKSTLYLQMDSLRSEDTATYYCSTAKAAISTPSYYVLDAWGQGASVTVSS
VL: DIGMTQSPTSMSKSVGDRVTMNCKASQNVGSNVDWFQQKTGQSPKLLIYKSSNRYTGVPARFTGSGSGTDFTFTISNMQAEDLAVYYCMQSNSYPPTFGGGTKLELK
- binding result [1]: binds
- binding result [2]: binds
